# Data as given in IntAct's records for PubMed 20708613.
# B1: Voltage-gated delayed rectifier potassium channel KCNH1 (Homo sapiens), O95259-2 (parent)
# chain: MTMAGGRRGLVAPQNTFLENIVRRSNDTNFVLGNAQIVDWPIVYSNDGFCKLSGYHRAEVMQKSSTCSFMYGELTDKDTIEKVRQTFENYEMNSFEILMYKKNRTPVWFFVKIAPIRNEQDKVVLFLCTFSDITAFKQPIEDDSCKGWGKFARLTRALTSSRGVLQQLAPSVQKGENVHKHSRLAEVLQLGSDILPQYKQEAPKTPPHIILHYCVFKTTWDWIILILTFYTAILVPYNVSFKTRQNNVAWLVVDSIVDVIFLVDIVLNFHTTFVGPAGEVISDPKLIRMNYLKTWFVIDLLSCLPYDVINAFENVDEGISSLFSSLKVVRLLRLGRVARKLDHYIEYGAAVLVLLVCVFGLAAHWMACIWYSIGDYEIFDEDTKTIRNNSWLYQLAMDIGTPYQFNGSGSGKWEGGPSKNSVYISSLYFTMTSLTSVGFGNIAPSTDIEKIFAVAIMMIGSLLYATIFGNVTTIFQQMYANTNRYHEMLNSVRDFLKLYQVPKGLSERVMDYIVSTWSMSRGIDTEKVLQICPKDMRADICVHLNRKVFKEHPAFRLASDGCLRALAMEFQTVHCAPGDLIYHAGESVDSLCFVVSGSLEVIQDDEVVAILGKGDVFGDVFWKEATLAQSCANVRALTYCDLHVIKRDALQKVLEFYTAFSHSFSRNLILTYNLRKRIVFRKISDVKREEEERMKRKNEAPLILPPDHPVRRLFQRFRQQKEARLAAERGGRDLDDLDVEKGNVLTEHASANHSLVKASVVTVRESPATPVSFQAASTSGVPDHAKLQAPGSECLGPKGGGGDCAKRKSWARFKDACGKSEDWNKVSKAESMETLPERTKASGEATLKKTDSCDSGITKSDLRLDNVGEARSPQDRSPILAEVKHSFYPIPEQTLQATVLEVRHELKEDIKALNAKMTNIEKQLSEILRILTSRRSSQSPQELFEISRPQSPESERDIFGAS
# partner: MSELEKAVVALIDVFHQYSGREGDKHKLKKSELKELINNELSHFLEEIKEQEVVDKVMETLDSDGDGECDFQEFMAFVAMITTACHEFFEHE
# Variants of: B1
# Details: with S100B
row,effect of a mutation on the interaction,Variant
1,disrupting interaction,R677N
2,disrupting interaction,R675N
3,disrupting interaction,K682N
4,disrupting interaction,R681N

# Variants of: B1
# Details: with S100B
# Remark: another data set of the same source
row,effect of a mutation on the interaction,Variant
1,disrupting interaction,F717S
2,disrupting interaction,F714S
